Assay results from publication PMC9095979, “Optimization of eIF4E-Binding Peptide Pep8 to Disrupt the RBM38-eIF4E Complex for Induction of p53 and Tumor Suppression” (Frontiers in Oncology, 2022).

Target: T1, eIF4E (purified, from pTXB1-eIF4E) (UniProt P06730 1-217)
T1 construct: also called purified eIF4E; source: pTXB1-eIF4E; protein expression and purification as previously described (12)
Test: pull-down; competitive: GST-RBM38 on GST beads, 250 µg purified eIF4E and 10 µM peptide in lysis buffer (50 mM Tris pH 7.5, 150 mM NaCl, 0.1% Triton X-100), rocked overnight, washed 3x, western blot
Settings: both partners purified

T1 sequence (P06730 whole entry): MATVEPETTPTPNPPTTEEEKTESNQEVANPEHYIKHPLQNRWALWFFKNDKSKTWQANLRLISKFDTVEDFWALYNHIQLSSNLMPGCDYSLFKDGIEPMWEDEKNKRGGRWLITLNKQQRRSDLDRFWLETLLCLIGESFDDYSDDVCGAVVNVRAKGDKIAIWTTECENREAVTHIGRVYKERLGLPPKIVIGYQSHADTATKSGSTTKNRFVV

B1: Pep7 (peptide)
peptide: PSAASPV
notes: also called Pep7-PSAASPV; shortened 7-amino acid peptide; source: synthetic peptide (GenScript)
binding result: binds
